Source: patent US9101618B2, “Method for treating and/or preventing neurodegenerative disease by adiponectin receptor agonist” (TOKYO METROPOLITAN INSTITUTE OF MEDICAL SCIENCE, priority 2011, dated 2015)

Columns and labels:
Assay type in all cases: cell-based, rat
[1] = system: B103 neuroblastoma cells (α (alpha)S); test: Adiponectin addition (1): α-synuclein aggregation (western blotting of fractions); settings: 1 μg/mL, 24 hours, serum-free medium
Protocol: The B103 neuroblastoma cells (α (alpha)S) and the B103 neuroblastoma cells (vector) were prepared and cultured in accordance with the procedures described in example 3. The B103 neuroblastoma cells (α (alpha)S) and the B103 neuroblastoma cells (vector) were inoculated on the 6-well plate and cultured to a state of about 80-90% confluence. After washing with PBS, the aforementioned cells were further cultured for 24 hours in a test medium prepared by adding recombinant human adiponectin (1 μg/mL, trimer, PROSPEC) to a serum-free medium. As a control, there was used a control medium prepared by adding thereto PBS instead of recombinant human adiponectin. After culturing, there were prepared the TBS soluble fraction, the SDS soluble fraction and the formic acid soluble fraction in accordance with the procedures described in example 1. Further, western blotting was performed in accordance with the procedures described in example 1. In order to evaluate α (alpha)-synuclein aggregation, an anti-α (alpha)-synuclein mouse monoclonal antibody (syn-1, Nippon Becton Dickinson Company, Ltd) was used as a primary antibody when performing western blotting, the anti-α (alpha)-synuclein mouse monoclonal antibody being diluted appropriately before use. […]

[2] = system: GSK-3β (beta); test: Addition of p38 MAPK inhibitor and AMPK inhibitor: phospho-GSK-3β western blotting; settings: 1 μg/mL adiponectin 30 min, no inhibitor
Protocol: The aforementioned B103 neuroblastoma cells (α (alpha)S) were inoculated on the 6-well plate and cultured to a state of about 80-90% confluence. After washing with PBS, the aforementioned cells were further cultured for 10 min in an inhibition test medium prepared by adding either 5 μM p38 MAPK inhibitor (SB203580, Promega) or 5 μM AMPK inhibitor (Compound C, Calbiochem) to a serum-free medium. As a control, DMSO was added to a serum-free medium instead of the aforementioned inhibitors. Later, either recombinant human adiponectin (1 μg/mL, trimer, PROSPEC) or PBS was added so as to culture the cells for 30 min. The cells collected were then lysed with the aforementioned cell lysis solution. Supernatants were collected after performing centrifugation at 100,000×g for 30 min, and then subjected to western blotting. Here, western blotting was performed in accordance with the procedures described in example 1.
When performing western blotting to evaluate signal transduction pathways, the anti-phospho-GSK-3β (beta) (Ser9) antibody (D85E12, Cell Signaling Technology), the anti-GSK-3β (beta) antibody (BD Biosciences) and the anti-β (beta)-actin mouse monoclonal antibody (C-15, Sigma-Aldrich Japan Inc.) were used as primary antibodies after being appropriately diluted. Further, the HRP labeled anti-mouse IgG antibody (DAKO) was used as a secondary antibody after being appropriately diluted.

[3] = system: GSK-3β (beta); test: Adiponectin addition (2): signal transduction, phospho-GSK-3β western blotting; settings: 1 μg/mL, 0, 10 and 30 min
Protocol: (§1) The B103 neuroblastoma cells (α (alpha)S) and the B103 neuroblastoma cells (vector) were inoculated on a 5 cm dish and cultured to a state of about 80-90% confluence. Later, the aforementioned cells were washed with PBS, and then cultured in a serum-free medium for four hours. After washing with PBS, the cells were then cultured in a test medium (adiponectin-added group) prepared by adding recombinant human adiponectin (1_μg/mL, trimer, PROSPEC) to a serum-free medium. As a control, there was used a control medium (adiponectin non-added group) prepared by adding thereto PBS instead of recombinant human adiponectin. A culture time was 0, 10 and 30 min when evaluating signal transduction, 0, 1 and 2 hour(s) when evaluating tau phosphorylation. The cells collected were lysed with a cell lysis solution (1% TritonX-100, 1% Nonidet P-40, 50 mM HEPES, 150 mM NaCl, 10% glycerol, 1.5 mM MgCl2, 1 mM EGTA, 100_mM sodium fluoride, a protease inhibitor (NACALAI TESQUE, INC.)). Supernatants were collected after performing centrifugation at 100,000×g for 30 min, and were used as surfactant soluble fractions when performing western blotting. Here, western blotting was performed in accordance with the procedures described in example 1. […]

[4] = system: AMPK; test: Adiponectin addition (2): signal transduction, phospho-AMPK western blotting; settings: 1 μg/mL, 0, 10 and 30 min
Protocol: as §1

B1: adiponectin: recombinant human adiponectin (trimer, PROSPEC) added to serum-free medium at 1 μg/mL (protein, UniProt Q15848 19-244, looked up)
Adiponectin: ETTTQGPGVLLPLPKGACTGWMAGIPGHPGHNGAPGRDGRDGTPGEKGEKGDPGLIGPKGDIGETGVPGAEGPRGFPGIQGRKGEPGEGAYVYRSAFSVGLETYVTIPNMPIRFTKIFYNQQNHYDGSTGKFHCNIPGLYYFAYHITVYMKDVKVSLFKKDKAMLFTYDQYQENNVDQASGSVLLHLEVGDQVWLQVYGEGERNGLYADNDNDSTFTGFLLYHDTN
[1]
  α-synuclein in culture supernatant: decreased
  α-synuclein in the formic acid soluble fraction: decreased
[2]
  phosphorylated GSK-3β in surfactant soluble fraction: detected
[3]
  phosphorylation of GSK-3β: promoted
[4]
  phosphorylation of AMPK: promoted
